What was measured:
[1] = target: SS-L6-LuS; experiment: BLI, 1:1 fit
[2] = target: SS-L6-Aferr; experiment: BLI, 1:1 fit
[3] = target: SS\u0394G4Loop-L6-LuS (MERS-CoV EMC/2012 spike stem fused to Aquifex aeolicus lumazine synthase); experiment: BLI, 1:1 fit
[4] = target: SS\u0394G4Loop-L6-Aferr (MERS-CoV EMC/2012 spike stem fused to human apoferritin); experiment: BLI, 1:1 fit
[5] = target: SS-L2-LuS (MERS-CoV EMC/2012 spike stem fused to Aquifex aeolicus lumazine synthase); experiment: BLI, 1:1 fit
[6] = target: MERS SS delG4loop Nanoparticle; experiment: BLI sensorgrams, six curves without concentration labels, time axis 0-500 s
[7] = target: SS-L2-LuS (MERS-CoV EMC/2012 spike stem fused to Aquifex aeolicus lumazine synthase)
[8] = target: MERS SS Nanoparticle (NP)

| Substance | Kd [1] [pM] | kon [1] [M⁻¹ s⁻¹] | Kd [2] [pM] | kon [2] [M⁻¹ s⁻¹] | Kd [3] [pM] | kon [3] [M⁻¹ s⁻¹] | Kd [4] [pM] | kon [4] [M⁻¹ s⁻¹] | Kd [5] [pM] | kon [5] [M⁻¹ s⁻¹] | Kd [6] [pM] | maximum binding [7] [nm] | Kd [8] [pM] |
| --- | --- | --- | --- | --- | --- | --- | --- | --- | --- | --- | --- | --- | --- |
| CC40.8 (antibody) | 1850 | 219000 | 1970 | 268000 | 2280 | 218000 | 2730 | 184000 | 748 | 315000 |  |  |  |
| G4 (antibody) | 4.6 | 133000 | 3.02 | 155000 | 3.47 | 147000 | 2.82 | 229000 | 1.78 | 270000 | 3 | 1.3 | 1.7 |
